Measured values: FireProtDB (doi:10.1016/j.bpj.2013.08.038)
Values joined by “and” are separate entries in the source; they are usually repeats but may differ in a detail not shown here. Identical values can stand only once.

Conditions: Pseudomonas aeruginosa (strain ATCC 15692 / DSM 22644 / CIP 104116 / JCM 14847 / LMG 12228 / 1C / PRS 101 / PAO1), pH 7, CD, transition: 2, reversible: yes, whole UniProt chain shown; for denaturant m value / unfolding free energy: 25 °C, GdnHCl; for Tm / unfolding enthalpy (calorimetric): Thermal

B1: Azurin wild type, P00282 (protein)
chain: MLRKLAAVSLLSLLSAPLLAAECSVDIQGNDQMQFNTNAITVDKSCKQFTVNLSHPGNLPKNVMGHNWVLSTAADMQGVVTDGMASGLDKDYLKPDDSRVIAHTKLIGSGEKDSVTFDVSKLKEGEQYMFFCTFPGHSALMKGTLTLK
denaturant m value (Dextran 20 50 mg/ml): 4.99 kcal/mol/M
denaturant m value (Dextran 20 100 mg/ml): 4.99 kcal/mol/M and 4.87 kcal/mol/M
unfolding free energy (Dextran 20 100 mg/ml): 8.71 kcal/mol
denaturant m value (Dextran 20 150 mg/ml): 4.68 kcal/mol/M
denaturant m value (Dextran 20 200 mg/ml): 4.66 kcal/mol/M
denaturant m value (Dextran20 200 mg/ml): 4.66 kcal/mol/M
denaturant m value (Dextran 20 250 mg/ml): 4.49 kcal/mol/M
unfolding free energy (Dextran 20 250 mg/ml): 9.29 kcal/mol
denaturant m value (Dextran 20 300 mg/ml): 4.9 kcal/mol/M
unfolding free energy (Dextran 20 300 mg/ml): 9.65 kcal/mol
denaturant m value (Dextran 40 200 mg/ml): 5.11 kcal/mol/M
unfolding free energy (Dextran 40 200 mg/ml): 8.95 kcal/mol
denaturant m value (Dextran 40 250 mg/ml): 4.08 kcal/mol/M
unfolding free energy (Dextran 40 250 mg/ml): 9.5 kcal/mol
denaturant m value (Dextran 40 300 mg/ml): 4.68 kcal/mol/M
unfolding free energy (Dextran 40 300 mg/ml): 9.65 kcal/mol
denaturant m value (Dextran 70 100 mg/ml): 4.9 kcal/mol/M
unfolding free energy (Dextran 70 100 mg/ml): 8.59 kcal/mol
denaturant m value (Dextran 70 200 mg/ml): 4.73 kcal/mol/M
unfolding free energy (Dextran 70 200 mg/ml): 8.86 kcal/mol
denaturant m value (Dextran 70 300 mg/ml): 4.68 kcal/mol/M
unfolding free energy (Dextran 70 300 mg/ml): 9.65 kcal/mol
denaturant m value (Ficoll 70 50 mg/ml): 5.09 kcal/mol/M
denaturant m value (Ficoll 70 100 mg/ml): 4.97 kcal/mol/M
denaturant m value (Ficoll 70 150 mg/ml): 4.46 kcal/mol/M
denaturant m value (Ficoll 70 200 mg/ml): 4.92 kcal/mol/M
denaturant m value (Ficoll 70 250 mg/ml): 4.94 kcal/mol/M
denaturant m value (Ficoll 70 300 mg/ml): 5.16 kcal/mol/M
denaturant m value: 4.92 kcal/mol/M
Tm (Dextran 20 50 mg/ml): 64 °C
unfolding enthalpy (calorimetric) (Dextran 20 50 mg/ml): 112 kcal/mol
Tm (Dextran 20 100 mg/ml): 65 °C
unfolding enthalpy (calorimetric) (Dextran 20 100 mg/ml): 114 kcal/mol
Tm (Dextran 20 150 mg/ml): 65 °C
unfolding enthalpy (calorimetric) (Dextran 20 150 mg/ml): 115 kcal/mol
Tm (Dextran 20 200 mg/ml): 66 °C
unfolding enthalpy (calorimetric) (Dextran 20 200 mg/ml): 120 kcal/mol
Tm (Dextran20 200 mg/ml): 66 °C
Tm (Dextran 20 250 mg/ml): 67 °C
unfolding enthalpy (calorimetric) (Dextran 20 250 mg/ml): 107 kcal/mol
Tm (Dextran 40 200 mg/ml): 66 °C
Tm (Dextran 70 100 mg/ml): 65 °C
Tm (Dextran 70 200 mg/ml): 68 °C
Tm (Ficoll 70 50 mg/ml): 64 °C
unfolding enthalpy (calorimetric) (Ficoll 70 50 mg/ml): 117 kcal/mol
Tm (Ficoll 70 100 mg/ml): 64 °C
unfolding enthalpy (calorimetric) (Ficoll 70 100 mg/ml): 117 kcal/mol
Tm (Ficoll 70 150 mg/ml): 65 °C
unfolding enthalpy (calorimetric) (Ficoll 70 150 mg/ml): 118 kcal/mol
Tm (Ficoll 70 200 mg/ml): 65 °C
unfolding enthalpy (calorimetric) (Ficoll 70 200 mg/ml): 117 kcal/mol
Tm (Ficoll 70 250 mg/ml): 65 °C
unfolding enthalpy (calorimetric) (Ficoll 70 250 mg/ml): 113 kcal/mol
